Laboratory results taken from patent US10544202B2, “Mutant proteins and methods for their production” (Medical Research Council, priority 2013, dated 2020).
Positions count from the first letter of the chain named. Names may count otherwise. “And” between values parts separate entries of the source, which are not always exact repeats. Equal entries are not always repeated.

B1: wild-type SERT: cocaine-sensitive rat serotonin transporter, parent protein (protein, listed as Rattus sp.)
chain: METTPLNSQKVLSECKDREDCQENGVLQKGVPTTADRAEPSQISNGYSAVPSTSAGDEASHSIPAATTTLVAEIRQGERETWGKKMDFLLSVIGYAVDLGNIWRFPYICYQNGGGAFLLPYTIMAIFGGIPLFYMELALGQYHRNGCISIWRKICPIFKGIGYAICIIAFYIASYYNTIIAWALYYLISSLTDRLPWTSCTNSWNTGNCTNYFAQDNITWTLHSTSPAEEFYLRHVLQIHQSKGLQDLGTISWQLTLCIVLIFTVIYFSIWKGVKTSGKVVWVTATFPYIVLSVLLVRGATLPGAWRGVVFYLKPNWQKLLETGVWVDAAAQIFFSLGPGFGVLLAFASYNKFNNNCYQDALVTSVVNCMTSFVSGFVIFTVLGYMAEMRNEDVSEVAKDAGPSLLFITYAEAIANMPASTFFAIIFFLMLITLGLDSTFAGLEGVITAVLDEFPHIWAKRREWFVLIVVITCVLGSLLTLTSGGAYVVTLLEEYATGPAVLTVALIEAVAVSWFYGITQFCSDVKEMLGFSPGWFWRICWVAISPLFLLFIICSFLMSPPQLRLFQYNYPHWSIVLGYCIGMSSVICIPTYIIYRLISTPGTLKERIIKSITPETPTEIPCGDIRMNAV
B2: L406A: rat SERT single mutant L406A (protein)
chain: B1 chain with L406A
B3: F311A: rat SERT single mutant F311A (protein)
chain: B1 chain with F311A
B4: G115A: rat SERT single mutant G115A (protein)
chain: B1 chain with G115A
B5: G113A: rat SERT single mutant G113A (protein)
chain: B1 chain with G113A
B6: A169L: rat SERT single mutant A169L (protein)
chain: B1 chain with A169L
B7: A505L: rat SERT single mutant A505L (protein)
chain: B1 chain with A505L
B8: G278A: rat SERT single mutant G278A (protein)
chain: B1 chain with G278A
B9: L405A: rat SERT single mutant L405A (protein)
chain: B1 chain with L405A
B10: P499A: rat SERT single mutant P499A (protein)
chain: B1 chain with P499A
B11: L99A: rat SERT single mutant L99A (protein)
chain: B1 chain with L99A
B12: SAH6: thermostabilised rat SERT triple mutant A505L+L99A+G278A (protein, UniProt P31652 1-630, looked up, variant A505L L99A G278A)
Sodium-dependent serotonin …: B1 chain with L99A, G278A, A505L
B13: SAH7: thermostabilised rat SERT triple mutant A505L+P499A+L405A (protein, UniProt P31652 1-630, looked up, variant A505L P499A L405A)
Sodium-dependent serotonin …: B1 chain with L405A, P499A, A505L

How the values were obtained:
SAH7 = biological target: T1, SAH7 (Rattus norvegicus, UniProt P31652, A505L/L405A/P499A); assay: [125I]-RTI55 saturation binding on membranes, SAH7; conditions: read-out: apparent KD for [125I]-RTI55 binding
T1 construct: expressed in transfected cells; host or cells: T-REx-293 (HEK293) cells, membranes

SAH6 [1] = biological target: T2, SAH6 (Rattus norvegicus, UniProt P31652, A505L/G278A/L99A); assay: [125I]-RTI55 saturation binding on membranes, SAH6; set-up: expressed in transfected cells; host or cells: T-REx-293 (HEK293) cells, membranes; conditions: read-out: apparent KD for [125I]-RTI55 binding
SAH6 [2] = biological target: T2, SAH6; conditions: SAH6 vs wild-type SERT
[3] = Thermostability assay of [125I]-RTI55-bound detergent-solubilised SERT (apparent Tm)
T-REx-293 cells [4] = assay: Cell surface expression by confocal microscopy; type: cell-based; set-up: key: *: low expression; **: as wild-type SERT; ***: higher expression than wild-type SERT; conditions: estimation by eye of fluorescence upon confocal microscopy
T-REx-293 cells [5] = assay: Expression level of SERT-mCherry mutants transiently transfected into T-REx-293 cells; type: cell-based; conditions: relative to wild-type SERT = 100%; transient transfection
Protocol: (FIG. 3A) Comparison of [^125I]-RTI55 bound to 554 detergent-solubilised Ala/Leu mutants at either 4° C. or after heating at 30° C. for 30 minutes. The data relating to thermostability (the heated samples) have been normalized to the amount of wild-type SERT remaining after heating (40%; horizontal dashed line). The expression level of wild-type SERT is indicated by the vertical dashed line and the grey column (0-200 dpm) represents non-specific binding of [^125I]-RTI55 to the parental T-REx-HEK293 cell line (no SERT). Each data point represents binding to the equivalent of 50,000 cells measured in duplicate (estimated error is ±20% in dpm). […] (FIG. 3C) Amino acid sequence of SERT (SEQ ID NO: 1) showing the positions of the thermostabilising mutations (hatched) that consistently gave >1° C. increase in Tm compared to wild-type SERT; residues in bold and hatched were used to stabilize either SAH6 and/or SAH7. N-linked glycosylation sites are indicated by the hexagons, a putative disulphide bond is shown as a grey line and the N-terminal and C-terminal fusion partners are shown (c-Myc tag and the fluorescent reporter protein mCherry) are indicated.

[6] = test system: tetracycline-induced stable T-REx cell lines; assay: [3H]-5HT uptake assay; type: cell-based; conditions: cell lines expressing cell surface-expressed mutant-GFP

Molecule | Cell surface expression (T-REx-293 cells [4]) | Expression (%) SERT = 100% (T-REx-293 cells [5]) | further results
COC(=O)[C@H]1C(c2ccc(I)cc2)C[C@@H]2CC[C@H]1N2C (stereo partly drawn) [[^125I]-RTI55, RTI55 (β-CIT)] | – | – | Kd (SAH7): 1.3 nM and 1.2 nM and 1.5 nM; Kd (SAH6 [1]): 3.8 nM and 3.7 nM
ibogaine | – | – | decrease in affinity relative to wild-type SERT (SAH6 [2]): 4.5 fold
CN(C)CCCN1c2ccccc2CCc2ccccc21 [imipramine] | – | – | decrease in affinity relative to wild-type SERT (SAH6 [2]): 6.7 fold
B1 | – | – | amount of transporter remaining after heating ([3]; 30° C. for 30 minutes): 40%; Apparent Tm in 0.1% DDM ([3]; 125I-RTI55-bound detergent-solubilised SERT, apparent Tm ±1° C.): 28 °C; apparent Tm ([3]; [125I]-RTI55-bound, DDM-solubilised, 30 min heating): 28 °C; transporter remaining functional after heating ([3]; single-temperature assay, 28° C. for 30 minutes): approximately 40%
B2 | * | 87% | –
B3 | ** | 492% | –
B4 | *** | 327% | –
B5 | ** | 42% | –
B6 | ** | 31% | –
B7 | *** | 175% | –
B8 | * | 39% | –
B9 | *** | 543% | –
B10 | ** | 65% | –
B11 | ** | 131% | –
B12 | – | – | transport of [3H]-5HT into the cell [6]: no significant transport
B13 | – | – | transport of [3H]-5HT into the cell [6]: no significant transport
